Results on one molecule are retold here after paper PMC5499727 (Nucleic Acids Research, 2017).

This assay has as its target Mcm2/4/6/7 complex (wild type) (mouse, UniProt P97310 1-904; P49717 1-862; P97311 1-821; Q61881 1-719). In words: co-sedimentation.

Sequence of Mcm2/4/6/7 complex (wild type) (P97310 whole entry, chain 1 of 4): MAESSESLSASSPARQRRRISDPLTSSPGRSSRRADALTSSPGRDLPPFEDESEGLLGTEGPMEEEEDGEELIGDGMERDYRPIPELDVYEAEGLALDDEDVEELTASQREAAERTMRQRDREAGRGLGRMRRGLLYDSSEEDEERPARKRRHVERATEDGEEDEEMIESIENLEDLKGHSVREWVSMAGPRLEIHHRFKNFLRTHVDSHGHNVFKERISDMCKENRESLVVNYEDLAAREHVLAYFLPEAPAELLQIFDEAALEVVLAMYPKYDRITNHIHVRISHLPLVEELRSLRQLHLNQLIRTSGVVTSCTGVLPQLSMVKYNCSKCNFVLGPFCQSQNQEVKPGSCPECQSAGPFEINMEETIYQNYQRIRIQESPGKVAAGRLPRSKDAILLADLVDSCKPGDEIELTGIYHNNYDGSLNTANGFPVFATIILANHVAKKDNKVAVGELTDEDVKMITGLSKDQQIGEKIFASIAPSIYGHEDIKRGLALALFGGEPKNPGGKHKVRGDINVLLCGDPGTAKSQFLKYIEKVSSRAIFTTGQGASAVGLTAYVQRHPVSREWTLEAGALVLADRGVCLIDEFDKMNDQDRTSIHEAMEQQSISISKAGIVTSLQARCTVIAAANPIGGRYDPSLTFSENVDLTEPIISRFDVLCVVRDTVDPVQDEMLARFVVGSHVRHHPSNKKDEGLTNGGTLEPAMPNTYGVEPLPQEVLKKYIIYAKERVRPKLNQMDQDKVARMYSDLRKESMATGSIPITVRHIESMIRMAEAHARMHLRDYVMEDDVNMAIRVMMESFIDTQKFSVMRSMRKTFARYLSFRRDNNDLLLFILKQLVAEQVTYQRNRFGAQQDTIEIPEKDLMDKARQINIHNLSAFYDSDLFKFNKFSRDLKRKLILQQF
Sequence of Mcm2/4/6/7 complex (wild type) (P49717 whole entry, chain 2 of 4): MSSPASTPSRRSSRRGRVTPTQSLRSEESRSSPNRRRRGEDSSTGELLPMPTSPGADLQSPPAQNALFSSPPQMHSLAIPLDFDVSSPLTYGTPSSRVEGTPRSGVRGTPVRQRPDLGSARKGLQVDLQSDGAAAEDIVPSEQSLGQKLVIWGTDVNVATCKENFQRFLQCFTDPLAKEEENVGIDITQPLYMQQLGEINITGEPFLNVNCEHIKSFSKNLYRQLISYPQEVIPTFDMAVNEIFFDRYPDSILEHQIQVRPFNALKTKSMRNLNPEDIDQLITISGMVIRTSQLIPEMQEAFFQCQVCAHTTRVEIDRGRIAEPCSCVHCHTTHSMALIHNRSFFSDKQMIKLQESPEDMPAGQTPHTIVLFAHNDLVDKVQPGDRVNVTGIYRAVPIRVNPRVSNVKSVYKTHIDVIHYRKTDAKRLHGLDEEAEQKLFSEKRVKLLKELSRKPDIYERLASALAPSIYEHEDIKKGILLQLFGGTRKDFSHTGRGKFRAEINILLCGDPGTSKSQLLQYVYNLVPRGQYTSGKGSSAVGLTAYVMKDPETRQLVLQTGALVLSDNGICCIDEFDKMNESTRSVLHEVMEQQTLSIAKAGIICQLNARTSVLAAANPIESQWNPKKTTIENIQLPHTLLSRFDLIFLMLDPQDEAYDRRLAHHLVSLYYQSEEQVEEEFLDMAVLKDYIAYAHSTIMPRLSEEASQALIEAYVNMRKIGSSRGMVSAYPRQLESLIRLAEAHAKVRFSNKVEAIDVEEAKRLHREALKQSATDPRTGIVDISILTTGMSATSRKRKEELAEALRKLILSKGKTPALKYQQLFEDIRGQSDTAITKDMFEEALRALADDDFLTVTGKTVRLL
Sequence of Mcm2/4/6/7 complex (wild type) (P97311 whole entry, chain 3 of 4): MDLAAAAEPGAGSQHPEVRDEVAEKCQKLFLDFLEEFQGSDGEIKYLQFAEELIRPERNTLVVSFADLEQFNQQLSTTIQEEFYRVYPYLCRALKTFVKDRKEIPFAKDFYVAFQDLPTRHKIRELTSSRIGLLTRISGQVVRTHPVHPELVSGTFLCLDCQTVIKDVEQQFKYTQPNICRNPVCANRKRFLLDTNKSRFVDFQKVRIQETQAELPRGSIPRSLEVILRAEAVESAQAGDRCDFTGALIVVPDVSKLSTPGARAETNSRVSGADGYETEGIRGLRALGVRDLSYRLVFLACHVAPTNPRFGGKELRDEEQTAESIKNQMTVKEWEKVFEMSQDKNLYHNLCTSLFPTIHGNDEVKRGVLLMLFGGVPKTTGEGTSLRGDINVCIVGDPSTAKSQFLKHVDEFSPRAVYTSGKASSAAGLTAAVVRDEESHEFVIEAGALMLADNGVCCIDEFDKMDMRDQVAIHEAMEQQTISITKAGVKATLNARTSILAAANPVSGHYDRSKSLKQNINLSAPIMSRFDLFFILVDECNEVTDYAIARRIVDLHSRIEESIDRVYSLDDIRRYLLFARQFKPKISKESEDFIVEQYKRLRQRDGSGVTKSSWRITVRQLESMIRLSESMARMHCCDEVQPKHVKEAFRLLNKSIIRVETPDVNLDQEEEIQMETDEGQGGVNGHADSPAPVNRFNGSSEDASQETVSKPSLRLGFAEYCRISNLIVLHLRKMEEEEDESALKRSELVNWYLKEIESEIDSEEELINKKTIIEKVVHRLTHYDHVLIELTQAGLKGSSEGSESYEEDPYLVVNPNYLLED
Sequence of Mcm2/4/6/7 complex (wild type) (Q61881 whole entry, chain 4 of 4): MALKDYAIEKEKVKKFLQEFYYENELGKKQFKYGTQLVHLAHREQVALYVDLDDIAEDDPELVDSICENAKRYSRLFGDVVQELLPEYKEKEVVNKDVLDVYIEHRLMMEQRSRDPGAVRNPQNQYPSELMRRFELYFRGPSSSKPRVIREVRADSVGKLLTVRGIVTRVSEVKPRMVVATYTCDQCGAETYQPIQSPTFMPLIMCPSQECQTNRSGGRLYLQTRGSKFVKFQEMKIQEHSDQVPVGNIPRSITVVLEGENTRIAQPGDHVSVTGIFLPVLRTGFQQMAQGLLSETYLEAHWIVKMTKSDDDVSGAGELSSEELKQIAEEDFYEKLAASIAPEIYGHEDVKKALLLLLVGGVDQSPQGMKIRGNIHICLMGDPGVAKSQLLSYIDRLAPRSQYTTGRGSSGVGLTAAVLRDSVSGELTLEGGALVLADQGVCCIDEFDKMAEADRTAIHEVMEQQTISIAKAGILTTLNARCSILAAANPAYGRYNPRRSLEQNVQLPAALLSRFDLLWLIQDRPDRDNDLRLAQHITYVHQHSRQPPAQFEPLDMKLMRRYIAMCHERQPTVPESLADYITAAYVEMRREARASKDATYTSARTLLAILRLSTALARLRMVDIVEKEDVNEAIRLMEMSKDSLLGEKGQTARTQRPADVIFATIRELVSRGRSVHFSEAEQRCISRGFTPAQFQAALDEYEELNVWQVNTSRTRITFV

B1: Mcm3/5 complex (wild type) (complex, mouse)
chain 1: MAGTVVLDDVELREAQRDYLDFLDDEEDQGIYQNKVRELISDNQYRLIVSVNDLRRKNEKRANRLLNNAFEELVAFQRALKDFVASIDATYAKQYEEFYIGLEGSFGSKHVSPRTLTSCFLSCVVCVEGIVTKCSLVRPKVVRSVHYCPATKKTIERRYSDLTTLVAFPSSSVYPTKDEENNPLETEYGLSVYKDHQTITIQEMPEKAPAGQLPRSVDVILDDDLVDKVKPGDRIQVVGTYRCLPGKKGCYTSGTFRTVLIACNVKQMSKDIQPAFSADDIAKIKKFSKTRSKDVFEQLARSLAPSIHGHDYVKKAILCLLLGGVERELENGSHIRGDINILLIGDPSVAKSQLLRYVLCTAPRAIPTTGRGSSGVGLTAAVTTDQETGERRLEAGAMVLADRGVVCIDEFDKMSDMDRTAIHEVMEQGRVTIAKAGIHARLNARCSVLAAANPVYGRYDQYKTPMENIGLQDSLLSRFDLLFIMLDQMDPEQDREISDHVLRMHQYRAPGEQDGDALPLGSSVDILATDDPDFTQDDQQDTRIYEKHDSLLHGTKKKKEKMVSAAFMKKYIHVAKIIKPTLTQESAAYIAEEYSRLRSQDSMSSDTARTSPVTARTLETLIRLATAHAKARMSKTVDLQDAEEAVELVQYAYFKKVLEKEKKRKKASEDESDLEDEEEKSQEDTEQKRKRRKTHAKDGESYDPYDFSEAETQMPQVHTPKTDDSQEKTDDSQETQDSQKVELSEPRLKAFKAALLEVFQEAHEQSVGMLHLTESINRNREEPFSSEEIQACLSRMQDDNQVMVSEGIVFLI
chain 2: MSGFDDPGIFYSDSFGGDPGAEEGQARKSQLQRRFKEFLRQYRVGTDRTGFTFKYRDELKRHYNLGEYWIEVEMEDLASFDEELADHLHKQPAEHLQLLEEAAKEVADEVTRPRPAGDELLQDIQVMLKSDASPSSIRILKSDMMSHLVKIPGIIISASAVRAKATRISIQCRSCHNTLTNIAMRPGLEGYALPRKCNMDQAGRPKCPLDPYFIMPDKCKCVDFQTLKLQELPDAVPHGEMPRHMQLYCDRYLCDKVVPGNRVTIMGIYSIKKFGLNPSKGRDRVGVGIRSSYIRVLGIQVDTDGSGRSFAGSVSPQEEEEFRRLAALPNIYELISKSISPSIFGGMDMKKAIACLLFGGSRKRLPDGLTRRGDINLLMLGDPGTAKSQLLKFVEKCSPIGVYTSGKGSSAAGLTASVIRDPSSRNFIMEGGAMVLADGGVVCIDEFDKMREDDRVAIHEAMEQQTISIAKAGITTTLNSRCSVLAAANSVFGRWDETKGEDNIDFMPTILSRFDMIFIVKDEHNEERDMMLAKHVMTLHVSALTQTQAVEGEIDLAKMKKFIAYCRARCGPRLSAEAAEKLKNRYIIMRSGARQHERDSDRRSSIPITVRQLEAIVRIAEALSKMKLQPFATEADVEEALRLFQVSTLDAALSGNLSGVEGFTTQEDQEMLSRIEKQLKRRFAIGSQVSEHSIVQDFTKQKYPEHAIRKVLQLMLRRGEIQHRMQRKVLYRLK
As for B1, the binding result is “binds”.
